Biological target: P. luminescens TcdA1 (TcA) (P. luminescens, UniProt Q9RN43 1-2516)
Experiment: cryo-EM structure

B1: TcdB2 (TcB), as the TcB part of the TcdB2-TccC3 fusion protein (natural protein)
chain: MQNSQDFSITELSLPKGGGAITGMGEALTPTGPDGMAALSLPLPISAGRGYAPAFTLNYNSGAGNSPFGLGWDCNVMTIRRRTHFGVPHYDETDTFLGPEGEVLVVADQPRDESTLQGINLGATFTVTGYRSRLESHFSRLEYWQPKTTGKTDFWLIYSPDGQVHLLGKSPQARISNPSQTTQTAQWLLEASVSSRGEQIYYQYRAEDDTGCEADEITHHLQATAQRYLHIVYYGNRTASETLPGLDGSAPSQADWLFYLVFDYGERSNNLKTPPAFSTTGSWLCRQDRFSRYEYGFEIRTRRLCRQVLMYHHLQALDSKITEHNGPTLVSRLILNYDESAIASTLVFVRRVGHEQDGNVVTLPPLELAYQDFSPRHHAHWQPMDVLANFNAIQRWQLVDLKGEGLPGLLYQDKGAWWYRSAQRLGEIGSDAVTWEKMQPLSVIPSLQSNASLVDINGDGQLDWVITGPGLRGYHSQRPDGSWTRFTPLNALPVEYTHPRAQLADLMGAGLSDLVLIGPKSVRLYANTRDGFAKGKDVVQSGDITLPVPGADPRKLVAFSDVLGSGQAHLVEVSATKVTCWPNLGRGRFGQPITLPGFSQPATEFNPAQVYLADLDGSGPTDLIYVHTNRLDIFLNKSGNGFAEPVTLRFPEGLRFDHTCQLQMADVQGLGVASLILSVPHMSPHHWRCDLTNMKPWLLNEMNNNMGVHHTLRYRSSSQFWLDEKAAALTTGQTPVCYLPFPIHTLWQTETEDEISGNKLVTTLRYARGAWDGREREFRGFGYVEQTDSHQLAQGNAPERTPPALTKNWYATGLPVIDNALSTEYWRDDQAFAGFSPRFTTWQDNKDVPLTPEDDNSRYWFNRALKGQLLRSELYGLDDSTNKHVPYTVTEFRSQVRRLQHTDSRYPVLWSSVVESRNYHYERIASDPQCSQNITLSSDRFGQPLKQLSVQYPRRQQPAINLYPDTLPDKLLANSYDDQQRQLRLTYQQSSWHHLTNNTVRVLGLPDSTRSDIFTYGAENVPAGGLNLELLSDKNSLIADDKPREYLGQQKTAYTDGQNTTPLQTPTRQALIAFTETTVFNQSTLSAFNGSIPSDKLSTTLEQAGYQQTNYLFPRTGEDKVWVAHHGYTDYGTAAQFWRPQKQSNTQLTGKITLIWDANYCVVVQTRDAAGLTTSAKYDWRFLTPVQLTDINDNQHLITLDALGRPITLRFWGTENGKMTGYSSPEKASFSPPSDVNAAIELKKPLPVAQCQVYAPESWMPVLSQKTFNRLAEQDWQKLYNARIITEDGRICTLAYRRWVQSQKAIPQLISLLNNGPRLPPHSLTLTTDRYDHDPEQQIRQQVVFSDGFGRLLQAAARHEAGMARQRNEDGSLIINVQHTENRWAVTGRTEYDNKGQPIRTYQPYFLNDWRYVSNDSARQEKEAYADTHVYDPIGREIKVITAKGWFRRTLFTPWFTVNEDENDTAAEVKKVKM
**Q.** Does B1 bind?
**A.** binds
